In patent publication US20220193132A1 (NATIONAL RESEARCH COUNCIL OF CANADA, published 2022):

What was measured:
[1] = target: T1, EGFRvIII, full length, overexpressed on glioblastoma cells (human, UniProt P00533 298-623); assay: flow cytometry dose-response on U87MG-EGFRvIII cells, apparent Kd
T1 construct: Cells overexpress full length EGFRvIII (deletion of exons 2-7 of EGFR); Cell line (U87MG or DKMG) is named under assay; also called U87MG-EGFRvIII; U87vIII
Procedure: Prior to analysis, cells were plated such that they were not more than 80% confluent on the day of analysis. Unless otherwise stated, all media are kept are 4° C. and all incubations are performed on wet ice. Cells were washed in PBS, harvested by the addition of cell dissociation buffer (Sigma), centrifuged and resuspended in complete medium at a cell density of 2×10⁶ cells/mL. Fifty μL/well of cells were distributed in a polypropylene v-bottom 96 well plate and serial 1/3 dilutions of purified mAbs starting at 100 nM were added and incubated for 2 hours. […] Cells were washed and re-suspended in medium containing Propidium iodide to exclude dead cells from analysis. Samples were filtered through a 60 μm nylon mesh filter plate (Millipore, Ireland) to remove cell aggregates. Flow cytometry analyses were performed on 2,000 viable single-cells events gated on forward scattering, side scattering parameters and propidium iodide dye exclusion using a BD-LSRFortessa flow cytometer (Becton-Dickinson Biosciences, CA, USA) and a standard filter set using BD FACSDiva™ acquisition software, according to manufacturer's instructions.
Specific detection of antibody binding was calculated as the mean fluorescent intensity of binding to each primary antibody after background level subtraction of the mean fluorescent intensity of binding of mouse IgG control. The data were analyzed with GraphPad Prism v 6.0 software using one-site specific binding with Hill slope non-linear regression curve fit model to determine Bmax (maximum specific binding) and Kdₐₚₚ (concentration needed to achieve a half-maximum binding at equilibrium) for each mAb tested.

[2] = target: wild type human EGFR, full length, overexpressed on U87MG cells (human, UniProt P00533 25-1210); assay: cell-based or functional assay
[3] = target: T1, EGFRvIII, full length, overexpressed on …; assay: cell-based or functional assay
[4] = target: T2, EGFRvIII amino acid residues 15 to 37 with Gly31 to Ala mutation (human); assay: yeast display flow cytometry, alanine scan
T2 construct: mutation is already in the entry
T2 peptide: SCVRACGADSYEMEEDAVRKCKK

[5] = target: T3, EGFRvIII amino acid residues 15 to 37 with Cys35 to Ala mutation (human); assay: yeast display flow cytometry, alanine scan
T3 construct: mutation is already in the entry
T3 peptide: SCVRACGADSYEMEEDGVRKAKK

[6] = target: T4, EGFRvIII amino acid residues 15 to 37 with Arg33 to Ala mutation (human); assay: yeast display flow cytometry, alanine scan
T4 construct: mutation is already in the entry
T4 peptide: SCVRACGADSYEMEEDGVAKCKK

[7] = target: T5, EGFRvIII amino acid residues 15 to 37 with Asp30 to Ala mutation (human); assay: yeast display flow cytometry, alanine scan
T5 construct: mutation is already in the entry
T5 peptide: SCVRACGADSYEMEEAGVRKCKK

[8] = target: T6, EGFRvIII amino acid residues 15 to 37 with Glu26 to Ala mutation (human); assay: yeast display flow cytometry, alanine scan
T6 construct: mutation is already in the entry
T6 peptide: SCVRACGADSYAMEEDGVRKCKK

[9] = target: T7, EGFRvIII amino acid residues 15 to 37 with Cys20 to Ala mutation (human); assay: yeast display flow cytometry, alanine scan
T7 construct: mutation is already in the entry
T7 peptide: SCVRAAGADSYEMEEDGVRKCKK

[10] = target: T8, EGFRvIII fragment amino acid residues 19 to 37, displayed on yeast (human); assay: yeast surface display, flow cytometry
T8 construct: also called aa 19-37
T8 peptide: ACGADSYEMEEDGVRKCKK
Source text: (§1) Assessment of the binding of anti-EGFRvIII mAbs to the fusion proteins expressed on yeast cell surface was done by flow cytometry analysis. Briefly, yeast cells were labeled with both the anti-hEGFRvIII mAb and chicken anti-Myc antibody, the latter being used to monitor the level of expression of the fusion protein. Following a wash step, binding of the primary antibodies is probed by a two-color indirect fluorescence labeling using secondary antibodies specific for mouse and chicken antibodies, respectively.

[11] = target: T9, EGFRvIII amino acid residues 15 to 37 with Gly21 to Ala mutation (human); assay: yeast display flow cytometry, Myc-normalized;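 note: Anti-EGFRvIII monoclonal antibodies tested by flow cytometry on yeast displaying alanine-substituted fragments, two-color indirect fluorescence with anti-Myc signal tracking fusion protein expression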
T9 construct: mutation is already in the entry
T9 peptide: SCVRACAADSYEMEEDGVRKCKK
Source text: as §1
(§2) To further characterize mAb epitopes within the EGFRvIII 15-37 region, an alanine scan of this region was performed, and modified fragments were expressed at the surface of the yeast. […] The resulting peptides were expressed at the surface of the yeast and each anti-EGFRvIII mAbs was tested on the corresponding yeast mutant strain by flow cytometry analysis. Thus, this assay determined the contribution of each amino acid(s) in the monoclonal antibody binding.

[12] = target: T10, EGFRvIII amino acid residues 15 to 37 with Val17 to Ala mutation (human); assay: yeast display flow cytometry, Myc-normalized;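 note: Anti-EGFRvIII monoclonal antibodies tested by flow cytometry on yeast displaying alanine-substituted fragments, two-color indirect fluorescence with anti-Myc signal tracking fusion protein expression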
T10 construct: mutation is already in the entry
T10 peptide: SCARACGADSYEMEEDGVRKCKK
Source text: as §1, §2

[13] = target: T11, EGFRvIII amino acid residues 15 to 37 with Arg18 to Ala mutation (human); assay: yeast display flow cytometry, Myc-normalized;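 note: Anti-EGFRvIII monoclonal antibodies tested by flow cytometry on yeast displaying alanine-substituted fragments, two-color indirect fluorescence with anti-Myc signal tracking fusion protein expression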
T11 construct: mutation is already in the entry
T11 peptide: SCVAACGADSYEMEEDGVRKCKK
Source text: as §1, §2

[14] = target: T12, EGFRvIII amino acid residues 15 to 37 with Tyr25 to Ala mutation (human); assay: yeast display flow cytometry, Myc-normalized;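 note: Anti-EGFRvIII monoclonal antibodies tested by flow cytometry on yeast displaying alanine-substituted fragments, two-color indirect fluorescence with anti-Myc signal tracking fusion protein expression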
T12 construct: mutation is already in the entry
T12 peptide: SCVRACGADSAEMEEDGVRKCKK
Source text: as §1, §2

[15] = target: T13, EGFRvIII amino acid residues 15 to 37 with Val32 to Ala mutation (human); assay: yeast display flow cytometry, Myc-normalized
T13 construct: mutation is already in the entry
T13 peptide: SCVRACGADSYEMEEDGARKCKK
Source text: as §1, §2

[16] = target: T14, EGFRvIII amino acid residues 15 to 37 with Glu29 to Ala mutation (human); assay: yeast display flow cytometry, Myc-normalized
T14 construct: mutation is already in the entry
T14 peptide: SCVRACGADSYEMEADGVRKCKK
Source text: as §1, §2

[17] = target: T15, EGFRvIII amino acid residues 15 to 37 with Asp23 to Ala mutation (human); assay: yeast display flow cytometry, Myc-normalized
T15 construct: mutation is already in the entry
T15 peptide: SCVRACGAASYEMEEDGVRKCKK
Source text: as §1, §2

[18] = target: T16, EGFRvIII amino acid residues 15 to 37 with Ser15 to Ala mutation (human); assay: yeast display flow cytometry, Myc-normalized
T16 construct: mutation is already in the entry
T16 peptide: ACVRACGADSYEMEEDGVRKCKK
Source text: as §1, §2

[19] = target: T17, EGFRvIII amino acid residues 15 to 37 with Met27 to Ala mutation (human); assay: yeast display flow cytometry, Myc-normalized
T17 construct: mutation is already in the entry
T17 sequence (peptide, as listed by the source, change not shown): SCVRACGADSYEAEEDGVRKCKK
Source text: as §1, §2

[20] = target: T18, EGFRvIII amino acid residues 15 to 37 with Glu28 to Ala mutation (human); assay: yeast display flow cytometry, Myc-normalized
T18 construct: mutation is already in the entry
T18 peptide: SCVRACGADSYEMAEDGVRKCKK
Source text: as §1, §2

[21] = target: T19, EGFRvIII amino acid residues 15 to 37 with Ser24 to Ala mutation (human); assay: yeast display flow cytometry, Myc-normalized
T19 construct: mutation is already in the entry
T19 peptide: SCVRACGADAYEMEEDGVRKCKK
Source text: as §1, §2

[22] = target: T20, EGFRvIII amino acid residues 15 to 37 with Cys16 to Ala mutation (human); assay: yeast display flow cytometry, Myc-normalized
T20 construct: mutation is already in the entry
T20 peptide: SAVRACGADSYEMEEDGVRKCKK
Source text: as §1, §2

[23] = target: T21, EGFRvIII amino acid residues 15 to 37 with Lys37 to Ala mutation (human); assay: yeast display flow cytometry, Myc-normalized
T21 construct: mutation is already in the entry
T21 peptide: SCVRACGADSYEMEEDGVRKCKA
Source text: as §1, §2

[24] = target: T22, EGFRvIII amino acid residues 15 to 37 with Lys36 to Ala mutation (human); assay: yeast display flow cytometry, Myc-normalized
T22 construct: mutation is already in the entry
T22 peptide: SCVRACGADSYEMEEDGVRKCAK
Source text: as §1, §2

[25] = target: T23, EGFRvIII amino acid residues 15 to 37 with Lys34 to Ala mutation (human); assay: yeast display flow cytometry, Myc-normalized
T23 construct: mutation is already in the entry
T23 peptide: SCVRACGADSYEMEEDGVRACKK
Source text: as §1, §2

[26] = target: T24, recombinant human EGFRvIII protein (extracellular domain), native (human, UniProt P00533 298-623); assay: ELISA Exp 2, purified mAb 1 ug/ml;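 note: ELISA of purified mAb binding to plate-coated antigen, native or heat/DTT-denatured, with pNPP substrate developed for 30 min and incubations at room temperature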
T24 construct: also called hEGFRvIII

[27] = target: T25, recombinant human wild type EGFR protein (extracellular domain), denatured (human, UniProt P00533 25-645); assay: ELISA Exp 2, purified mAb 1 ug/ml;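 note: ELISA of purified mAb binding to plate-coated antigen, native or heat/DTT-denatured, with pNPP substrate developed for 30 min and incubations at room temperature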
T25 construct: Same protein as m23 after 95 C for 5 min in PBS with 40 mM DTT (denatured, reduced); also called wt EGFR Denatured

[28] = target: T26, recombinant human EGFRvIII protein (extracellular domain), denatured (human, UniProt P00533 298-623); assay: ELISA Exp 2, purified mAb 1 ug/ml;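 note: ELISA of purified mAb binding to plate-coated antigen, native or heat/DTT-denatured, with pNPP substrate developed for 30 min and incubations at room temperature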
T26 construct: Same protein as m21 after 95 C for 5 min in PBS with 40 mM DTT (denatured, reduced); also called EGFRvIII Denatured

[29] = target: T27, recombinant human wild type EGFR protein (extracellular domain), native (human, UniProt P00533 25-645); assay: ELISA Exp 2, purified mAb 1 ug/ml;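 note: ELISA of purified mAb binding to plate-coated antigen, native or heat/DTT-denatured, with pNPP substrate developed for 30 min and incubations at room temperature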
T27 construct: also called wt EGFR; EGFR WT

[30] = target: T24, recombinant human EGFRvIII protein …; assay: ELISA Exp 1, mAb supernatant
[31] = target: T25, recombinant human wild type EGFR …; assay: ELISA Exp 1, mAb supernatant
[32] = target: T26, recombinant human EGFRvIII protein …; assay: ELISA Exp 1, mAb supernatant
[33] = target: T27, recombinant human wild type EGFR …; assay: ELISA Exp 1, mAb supernatant

B1: F263-4E11 (antibody, V domains shown)
VH: DVQLQESGPGLVKPSQSLSLTCTVTGYSITSDYAWNWIRQFPGNKLEWMGYIGYNGRTSYNPSLKSRISITRDTSKNQFFLQLNYVTTEDTATFYCARLGRGFAYWGQGTLVTVSA
VL: DILMTQSPSSMSVSLGDTVSITCHASQGINSNIGWLLQKPGKSFKGLIYHGTNLEDGVPSRFSGSGSGTDYSLTISSLESEDFADYYCVQYAQFPYTFGGGTKLEIK
notes: Mouse hybridoma mAb
In the case of B1, the Kd [1] is reported as 6.7 nM, the “% survival (DM1 secondary-conjugate ADC surrogate assay, vs mouse IgG)” value [2] is reported as > 98% and the “% survival (DM1 secondary-conjugate ADC surrogate assay, vs mouse IgG)” value [3] is reported as 54%. B1: no binding (tested: 0-15% of wild-type binding) [4]; no binding (tested: 0-15% of wild-type binding) [5]; no binding (tested: 0-15% of wild-type binding) [6]. B1: no binding (tested: 0-15% of wild-type binding) [7]; no binding (tested: 0-15% of wild-type binding) [8]; no binding (tested: 0-15% of wild-type binding) [9]. For the same binder, the binding result [10] was “binds”, the “% of binding vs wild-type fragment 15-37” value [11] was 180% and the “% of binding vs wild-type fragment 15-37” value [12] was 148%. The “% of binding vs wild-type fragment 15-37” value [13] was 102%, the “% of binding vs wild-type fragment 15-37” value [14] was 83.3% and the “% of binding vs wild-type fragment 15-37” value [15] was 30.4%. For the same binder, the “% of binding vs wild-type fragment 15-37” value [16] was 75.3%, the “% of binding vs wild-type fragment 15-37” value [17] was 58.4% and the “% of binding vs wild-type fragment 15-37” value [18] was 94.9%. The “% of binding vs wild-type fragment 15-37” value [19] was 102%, the “% of binding vs wild-type fragment 15-37” value [20] was 90.9% and the “% of binding vs wild-type fragment 15-37” value [21] was 170%. For the same binder, the “% of binding vs wild-type fragment 15-37” value [22] was 176%, the “% of binding vs wild-type fragment 15-37” value [23] was 191% and the “% of binding vs wild-type fragment 15-37” value [24] was 110%. For the same binder, the “% of binding vs wild-type fragment 15-37” value [25] was 130%, the “ELISA absorbance 405 nm” value [26] was 1.53 A405 and the “ELISA absorbance 405 nm” value [27] was 0.001 A405. For the same binder, the “ELISA absorbance 405 nm” value [28] was 0.997 A405, the “ELISA absorbance 405 nm” value [29] was 1.7 A405 and the “ELISA absorbance 405 nm” value [30] was 1.36 A405. The “ELISA absorbance 405 nm” value [31] was 0.029 A405, the “ELISA absorbance 405 nm” value [32] was 1.39 A405 and the “ELISA absorbance 405 nm” value [33] was 1.62 A405.
